In patent US20190300590A1 (PROTAGONIST THERAPEUTICS, published 2019):
*1 amine or outer side, *2 acyl side, *3 side chain or, on linkers, in order; H or OH if unused. Bridges are numbered along the chain shown (N, C = ends). Primed or numbered codes have the meaning given here. [ ]: non-standard residue; d: D form. Phe(4-OMe)(3) = O-methyl-L-tyrosine (4-methoxy-L-phenylalanine), COc1ccc(C[C@H](N[*:1])C(=O)[*:2])cc1; Phe(4-OMe) = 4-methoxy-L-phenylalanine (O-methyl-L-tyrosine), COc1ccc(C[C@H](N[*:1])C(=O)[*:2])cc1; Phe(4-OMe)(5) = O-methyl-L-tyrosine (4-methoxy-Phe), COc1ccc(C[C@H](N[*:1])C(=O)[*:2])cc1; Phe(4-guanidino) = N=C(N)Nc1ccc(C[C@H](N)C(=O)O)cc1; Phe(4-N3) = [N-]=[N+]=Nc1ccc(C[C@H](N)C(=O)O)cc1; Phe(3,4-Cl2) = N[C@@H](Cc1ccc(Cl)c(Cl)c1)C(=O)O; Phe(4-CONH2) = NC(=O)c1ccc(C[C@H](N)C(=O)O)cc1; Tyr(Ph) = N[C@@H](Cc1ccc(Oc2ccccc2)cc1)C(=O)O; Phe(4-Br) = N[C@@H](Cc1ccc(Br)cc1)C(=O)O; Phe(4-NH2) = Nc1ccc(C[C@H](N)C(=O)O)cc1; 1Nal = N[C@@H](Cc1cccc2ccccc12)C(=O)O; 2Nal = N[C@@H](Cc1ccc2ccccc2c1)C(=O)O; Cha = N[C@@H](CC1CCCCC1)C(=O)O; αMeK = C[C@](N)(CCCCN)C(=O)O; Abu = CC[C@H](N)C(=O)O

T1: IL23R_huFC (human, UniProt Q5VWK5 24-353)
T1 sequence (looked up): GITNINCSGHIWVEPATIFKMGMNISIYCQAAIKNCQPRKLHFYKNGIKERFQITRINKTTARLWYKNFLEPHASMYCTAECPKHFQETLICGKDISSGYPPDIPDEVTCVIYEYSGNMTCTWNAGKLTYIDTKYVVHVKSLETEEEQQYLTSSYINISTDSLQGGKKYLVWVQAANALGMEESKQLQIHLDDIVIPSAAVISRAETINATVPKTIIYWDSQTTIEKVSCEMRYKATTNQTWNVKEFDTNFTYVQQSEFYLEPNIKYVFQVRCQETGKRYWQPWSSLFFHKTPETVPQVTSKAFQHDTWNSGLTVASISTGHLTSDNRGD

T2: IL-23R on human cells (IL-23R-expressing DB cells; human NK cells) (human, UniProt Q5VWK5 24-629)
T2 sequence (looked up): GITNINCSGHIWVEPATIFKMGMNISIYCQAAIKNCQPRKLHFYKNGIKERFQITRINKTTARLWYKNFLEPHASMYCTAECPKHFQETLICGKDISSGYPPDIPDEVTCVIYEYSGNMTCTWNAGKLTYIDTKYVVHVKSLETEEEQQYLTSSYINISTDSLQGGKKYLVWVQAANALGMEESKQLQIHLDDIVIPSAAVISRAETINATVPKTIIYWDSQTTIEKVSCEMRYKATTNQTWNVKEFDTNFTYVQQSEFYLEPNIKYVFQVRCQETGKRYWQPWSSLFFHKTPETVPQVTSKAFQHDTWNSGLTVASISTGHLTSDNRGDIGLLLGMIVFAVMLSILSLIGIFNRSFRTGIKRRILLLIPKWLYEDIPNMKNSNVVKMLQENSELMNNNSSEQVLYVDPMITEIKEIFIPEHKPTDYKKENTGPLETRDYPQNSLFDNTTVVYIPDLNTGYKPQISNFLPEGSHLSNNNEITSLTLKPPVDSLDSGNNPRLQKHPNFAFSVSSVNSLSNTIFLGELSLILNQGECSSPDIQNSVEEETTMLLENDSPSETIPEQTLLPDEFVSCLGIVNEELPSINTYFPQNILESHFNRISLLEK


Target: Rat IL-23R_huFC (rat)
Test: rat ELISA vs IL-23

IC50 | Binder
0.025 to 0.1 µM | Ac-[Abu]QTWQC[Phe(4-NH2)]W[αMeK]ENG-NH2 (thioether 1-6) [Ac-Cyclo-[[Abu]-QTWQC]-[Phe(4-NH2)]-W-[α-MeLys]-ENG-NH2]
0.025 to 0.1 µM | Ac-[Abu]QTWQC[Phe(4-OMe)][1Nal][αMeK]ENG-NH2 (thioether 1-6) [Ac-Cyclo-[[Abu]-QTWQC]-[Phe(4-OMe)]-[1-Nal]-[α-MeLys]-ENG-NH2]
0.025 to 0.1 µM | Ac-[Abu]QTWQC[Phe(4-OMe)][2Nal][αMeK]VNG-NH2 (thioether 1-6) [Ac-Cyclo-[[Abu]-QTWQC]-[Phe(4-OMe)]-[2-Nal]-[α-MeLys]-VNG-NH2]
0.025 to 0.1 µM | Ac-[Abu]STWQC[Phe(4-OMe)(5)][2Nal][αMeK]K(Ac)NGE-NH2 (thioether 1-6) [Ac-Cyclo-[[Abu]-STWQC]-[Phe(4-OMe)]-[2-Nal][α-MeLys]-[Lys(Ac)]-NGE-NH2]

Continued, binder first:

Binder | IC50
XQTWQCFXXENG (as bracketed in name; thioether cyclo) [Ac-Cyclo-[[Abu]-QTWQC]-[Phe(4-OMe)]-[2-Nal]-[α-MeOrn]-ENG-NH2] | 0.025 to 0.1 µM
Ac-[Abu]QTWQC[Phe(4-OMe)][2Nal][Cha]K(Ac)NG-NH2 (thioether 1-6) [Ac-Cyclo-[[Abu]-QTWQC]-[Phe(4-OMe)]-[2-Nal]-[Cha]-[Lys(Ac)]-NG-NH2] | 0.025 to 0.1 µM
Ac-[Abu]QTWQC[2Nal][2Nal][αMeK]K(Ac)NG-NH2 (thioether 1-6) [Ac-Cyclo-[[Abu]-QTWQC]-[2-Nal]-[2-Nal]-[α-MeLys]-[Lys(Ac)]-NG-NH2] | 0.025 to 0.1 µM
Ac-[Abu]QTWQC[Phe(4-Br)]W[αMeK]ENG-NH2 (thioether 1-6) [Ac-Cyclo-[[Abu]-QTWQC]-[Phe(4-Br)] W-[α-MeLys]-ENG-NH2] | 0.025 to 0.1 µM
Ac-[Abu]QTWQC[Tyr(Ph)]W[αMeK]ENG-NH2 (thioether 1-6) [Ac-Cyclo-[[Abu]-QTWQC]-[Phe(4-phenoxy)]-W-[α-MeLys]-ENG-NH2] | 0.025 to 0.1 µM
Ac-[Abu]QTWQC[Phe(4-CONH2)][2Nal][αMeK]K(Ac)NG-NH2 (thioether 1-6) [Ac-Cyclo-[[Abu]-QTWQC]-[Phe(4-CONH2)]-[2-Nal][α-MeLys]-[Lys(Ac)]NG-NH2] | 0.025 to 0.1 µM
Ac-[Abu]QTWQC[Phe(4-N3)][2Nal][αMeK]K(Ac)NG-NH2 (thioether 1-6) [Ac-Cyclo-[[Abu]-QTWQC]-[Phe-4-N3]-[2-Nal]-[α-MeLys]-[Lys(Ac)]-NG-NH2] | 0.025 to 0.1 µM
Ac-[Abu]QTWQC[2Nal][2Nal][αMeK]ENG-NH2 (thioether 1-6) [Ac-Cyclo-[[Abu]-QTWQC]-[2-Nal]-[2-Nal]-[α-MeLys]-ENG-NH2] | 0.025 to 0.1 µM
XQTWQCFWXENG (as bracketed in name; thioether cyclo) [Ac-Cyclo-[[Abu]-QTWQC]-[Phe(4-OMe)]-W-[α-MeOrn]-ENG-NH2] | 0.025 to 0.1 µM
XQTWQCYWXKNG (as bracketed in name; thioether cyclo) [Ac-Cyclo-[[Abu]-QTWQC-YW-[α-MeOrn]-[Lys(Ac)]-NG-NH2] | 0.025 to 0.1 µM
Ac-[Abu]QTWQC[Phe(4-OMe)(3)][2Nal][αMeK]K(Ac)QG-NH2 (thioether 1-6) [Ac-Cyclo-[[Abu]-QTWQC]-[Phe(4-OMe)]-[2-Nal][α-MeLys]-[Lys(Ac)]-QG-NH2] | 0.025 to 0.1 µM
Ac-[Abu]QTWQC[Phe(4-OMe)(3)][2Nal][αMeK]K(Ac)NGE-NH2 (thioether 1-6) [Ac-Cyclo-[[Abu]-QTWQC]-[Phe(4-OMe)]-[2-Nal][α-MeLys]-[Lys(Ac)]-NGE-NH2] | 0.025 to 0.1 µM
Ac-[Abu]QTWQC[Phe(4-OMe)]W[αMeK]ENG-NH2 (thioether 1-6) [Ac-Cyclo-[[Abu]-QTWQC]-[Phe(4-OMe)]-W-[α-MeLys]-ENG-NH2] | 0.025 to 0.1 µM
Ac-[Abu]QTWQC[Phe(4-guanidino)]W[αMeK]ENG-NH2 (thioether 1-6) [Ac-Cyclo-[[Abu]-QTWQC]-[Phe(4-guanidino)]-W-[α-MeLys]-ENG-NH2] | 0.025 to 0.1 µM

Target: T1, IL23R_huFC
Test: human ELISA vs IL-23

IC50 | Binder
0.1 to 1 µM | Ac-[Abu]QTWQC[Phe(3,4-Cl2)][2Nal][αMeK]K(Ac)NG-NH2 (thioether 1-6) [Ac-Cyclo-[[Abu]-QTWQC]-Phe(3,4-Cl2)[2-Nal][α-MeLys]-Lys(Ac)]NG-NH2]
0.1 to 1 µM | XQTWQCFXXKNG (as bracketed in name; thioether cyclo) [Ac-Cyclo-[[Abu]-QTWQC]-[Phe(4-OMe)]-[2-Nal]-[Orn]-[Lys(Ac)]-NG-NH2]

Target: T1, IL23R_huFC
Test: human ELISA vs IL-23
Remark: another data set of the same source

IC50 | Binder
0.025 to 0.1 µM | Ac-[Abu]QTWQC[Phe(4-OMe)][1Nal][αMeK]ENG-NH2 (thioether 1-6) [Ac-Cyclo-[[Abu]-QTWQC]-[Phe(4-OMe)]-[1-Nal]-[α-MeLys]-ENG-NH2]
0.025 to 0.1 µM | Ac-[Abu]QTWQC[Phe(4-OMe)][2Nal][αMeK]VNG-NH2 (thioether 1-6) [Ac-Cyclo-[[Abu]-QTWQC]-[Phe(4-OMe)]-[2-Nal]-[α-MeLys]-VNG-NH2]
0.025 to 0.1 µM | Ac-[Abu]STWQC[Phe(4-OMe)(5)][2Nal][αMeK]K(Ac)NGE-NH2 (thioether 1-6) [Ac-Cyclo-[[Abu]-STWQC]-[Phe(4-OMe)]-[2-Nal][α-MeLys]-[Lys(Ac)]-NGE-NH2]

The next lines start with the binder.

Binder | IC50
Ac-[Abu]QTWQC[Phe(4-OMe)][2Nal][Cha]K(Ac)NG-NH2 (thioether 1-6) [Ac-Cyclo-[[Abu]-QTWQC]-[Phe(4-OMe)]-[2-Nal]-[Cha]-[Lys(Ac)]-NG-NH2] | 0.025 to 0.1 µM
Ac-[Abu]QTWQC[2Nal][2Nal][αMeK]K(Ac)NG-NH2 (thioether 1-6) [Ac-Cyclo-[[Abu]-QTWQC]-[2-Nal]-[2-Nal]-[α-MeLys]-[Lys(Ac)]-NG-NH2] | 0.025 to 0.1 µM
Ac-[Abu]QTWQC[2Nal][2Nal][αMeK]ENG-NH2 (thioether 1-6) [Ac-Cyclo-[[Abu]-QTWQC]-[2-Nal]-[2-Nal]-[α-MeLys]-ENG-NH2] | 0.025 to 0.1 µM
XQTWQCFWXENG (as bracketed in name; thioether cyclo) [Ac-Cyclo-[[Abu]-QTWQC]-[Phe(4-OMe)]-W-[α-MeOrn]-ENG-NH2] | 0.025 to 0.1 µM
Ac-[Abu]QTWQC[Phe(4-OMe)(3)][2Nal][αMeK]K(Ac)QG-NH2 (thioether 1-6) [Ac-Cyclo-[[Abu]-QTWQC]-[Phe(4-OMe)]-[2-Nal][α-MeLys]-[Lys(Ac)]-QG-NH2] | 0.025 to 0.1 µM
Ac-[Abu]QTWQC[Phe(4-OMe)(3)][2Nal][αMeK]K(Ac)NGE-NH2 (thioether 1-6) [Ac-Cyclo-[[Abu]-QTWQC]-[Phe(4-OMe)]-[2-Nal][α-MeLys]-[Lys(Ac)]-NGE-NH2] | 0.025 to 0.1 µM

Target: T2, IL-23R on human cells …
Test: cell-based or functional assay

pStat3 HTRF IC50 | Binder
< 10 nM | Ac-[Abu]QTWQC[Phe(4-OMe)][2Nal][Cha]K(Ac)NG-NH2 (thioether 1-6) [Ac-Cyclo-[[Abu]-QTWQC]-[Phe(4-OMe)]-[2-Nal]-[Cha]-[Lys(Ac)]-NG-NH2]
< 10 nM | XQTWQCFWXENG (as bracketed in name; thioether cyclo) [Ac-Cyclo-[[Abu]-QTWQC]-[Phe(4-OMe)]-W-[α-MeOrn]-ENG-NH2]
< 10 nM | Ac-[Abu]QTWQC[Phe(4-OMe)][2Nal][αMeK]VNG-NH2 (thioether 1-6) [Ac-Cyclo-[[Abu]-QTWQC]-[Phe(4-OMe)]-[2-Nal]-[α-MeLys]-VNG-NH2]
< 10 nM | Ac-[Abu]QTWQC[Phe(4-OMe)(3)][2Nal][αMeK]K(Ac)QG-NH2 (thioether 1-6) [Ac-Cyclo-[[Abu]-QTWQC]-[Phe(4-OMe)]-[2-Nal][α-MeLys]-[Lys(Ac)]-QG-NH2]
< 10 nM | Ac-[Abu]QTWQC[Phe(4-OMe)(3)][2Nal][αMeK]K(Ac)NGE-NH2 (thioether 1-6) [Ac-Cyclo-[[Abu]-QTWQC]-[Phe(4-OMe)]-[2-Nal][α-MeLys]-[Lys(Ac)]-NGE-NH2]
